In PMC5492955:

Target: the single-site mutations V130C and L210C
Assay: radioligand binding

Work on “glucagon (from UniProt P01275) (peptide)” yielded a glucagon binding (% of WT) of 50%.
